# Experimental data: publication PMC11224109, “Synthesis and preclinical evaluation of novel ^18F-vancomycin-based tracers for the detection of bacterial infections using positron emission tomography” (European Journal of Nuclear Medicine and Molecular Imaging, 2024)
# Key:
# [1] = Distribution coefficient LogD7.4, shake-flask n-octanol/PBS; assay type: physicochemical; conditions: shake-flask n-octanol/PBS pH 7.4, 500 µL each, 10 µL tracer in saline, vortexed 30 s, shaken 15 min, gamma counter, mean ± SD
# Procedure: The tracer distribution coefficient in n-octanol/PBS pH 7.4 (LogD7.4) was determined using a shake-flask methodology. To an Eppendorf tube containing 500 µL n-octanol and 500 µL PBS, 10 µL tracer solution in saline was added. The vial was vortexed for 30 s and placed on an Eppendorf shaker for 15 min. After incubation, layers were separated by centrifugation (1 min at 10.000 rpm) and a fraction of the n-octanol layer was pipetted off. To minimize contamination of the bottom layer with the n-octanol layer, the bottom PBS layer was collected by puncturing the bottom of the Eppendorf tube with a 22G needle and aspirating a fraction of the PBS layer. Collected fractions were weighted to correct for collected volume and subsequently measured on a calibrated gamma counter and corrected for decay. LogD7.4 was calculated as [drawing 1] .
# [2] = Biodistribution in vivo and PET in healthy mice; conditions: in vivo; for tissue uptake at 0.5 h / tissue uptake at 1 h: male, C57BL/6, mouse, 2 MBq, total radioactivity, Biodistribution, healthy male C57BL/6 mice, penile vein injection, gamma counter, mean of n = 3; for tissue uptake at 0.5 h: 30 min; for tissue uptake at 1 h: 60 min
# Procedure: All murine experiments were approved by the Animal Care and Use Committee of the University of Groningen under license protocol number 2114768-01-001. In vivo biodistribution was performed in male C57BL/6 mice (age 8 weeks, 25 g). Per tracer, the animals were divided in three groups based on the tracer distribution times (30 min, 60 min, and 90 min). […] Each experimental arm (i.e. time point) consisted of three animals. […] Tracer was administered at t = 0 via penile vein injection (2.0 ± 0.9 MBq in 100 µL 0.9% saline solution, Supplemental Table 2). After tracer administration, the animals were transferred to a Siemens Focus 220 microPET small animal scanner (Siemens, Munich, Germany) and scanned for the designated time, followed by a transmission scan of 10 min for attenuation correction. PET data were normalized and corrected for decay, after which the PET data were reconstructed using OSEM2D-Z1-SC-256. The PET data frames used for reconstruction were: 6 × 10 s, 4 × 30 s, 2 × 60 s, 120 s, 180 s, 4 × 300 s, 3 × 600 s, 1200 s or until the designated scan time was reached, taking into account a 10-min transmission scan following the emission scan. Next, animals were terminated, and organs harvested to assay biodistribution in a calibrated gamma counter (Wizard2, Perkin Elmer, Waltham, United States).
# [3] = Summary of tracer stability in vitro and in vivo
# Procedure: Stability of the tracers was determined in PBS and human plasma. In a typical experiment, 1 MBq of radioactivity (10–20 µL) was added to 250 µL of PBS or human plasma. Samples were heated to 37 °C on a shaker and sampled at fixed intervals. For samples containing human plasma, protein was precipitated using two volumes of cold MeCN. Precipitated samples were briefly centrifuged to pellet the insoluble fraction and supernatant was used for stability assessment. Supernatant (1 µL) was loaded on a TLC plate and imaged using BAS-IP MS 2025 E plates (Fujifilm, Tokyo, Japan) on an Amersham Typhoon Biomolecular Imager (GE Healthcare Bio-Sciences Corp, Chicago, United States) equipped with a phosphor imaging stage. [^18F]BODIPY-FL-vancomycin has an Rf of 0.68 (petroleum ether/MeOH 3:1), [^18F]FB-vancomycin has an Rf of 0.66 (2 M NaOAc/MeOH 5:1). For [^18F]PQ-VE1-vancomycin, conditions described in [44] were used.
compound,measurement,setting,value
CC(C)C[C@H](C(=O)N[C@H]1C(=O)N[C@@H](CC(N)=O)C(=O)N[C@H]2C(=O)N[C@H]3C(=O)N[C@H](C(=O)N[C@H](C(=O)O)c4cc(O)cc(O)c4-c4cc3ccc4O)[C@H](O)c3ccc(c(Cl)c3)Oc3cc2cc(c3O[C@@H]2O[C@H](CO)[C@@H](O)[C@H](O)[C@H]2O[C@H]2C[C@](C)(N)[C@H](O)[C@H](C)O2)Oc2ccc(cc2Cl)[C@H]1O)N(C)C(=O)c1ccc(F)cc1 [[^18F]FB-vancomycin],LogD7.4,[1],-0.96 ± 0.03 (n = 12)
same,tissue uptake at 0.5 h,"[2]; iv, Bladder",21.8 %ID/g
same,tissue uptake at 1 h,"[2]; iv, Bladder",18.5 %ID/g
same,tissue uptake at 0.5 h,"[2]; iv, Bone",0.06 %ID/g
same,tissue uptake at 1 h,"[2]; iv, Bone",0.04 %ID/g
same,tissue uptake at 0.5 h,"[2]; iv, Brain",0.05 %ID/g
same,tissue uptake at 1 h,"[2]; iv, Brain",0.05 %ID/g
same,tissue uptake at 0.5 h,"[2]; iv, Fat",0.54 %ID/g
same,tissue uptake at 1 h,"[2]; iv, Fat",0.26 %ID/g
same,tissue uptake at 0.5 h,"[2]; iv, Heart",0.11 %ID/g
same,tissue uptake at 1 h,"[2]; iv, Heart",0.22 %ID/g
same,tissue uptake at 0.5 h,"[2]; iv, Kidneys",1.01 %ID/g
same,tissue uptake at 1 h,"[2]; iv, Kidneys",0.45 %ID/g
same,tissue uptake at 0.5 h,"[2]; iv, Large intestine",0.25 %ID/g
same,tissue uptake at 1 h,"[2]; iv, Large intestine",0.37 %ID/g
same,tissue uptake at 0.5 h,"[2]; iv, Liver",0.15 %ID/g
same,tissue uptake at 1 h,"[2]; iv, Liver",0.1 %ID/g
same,tissue uptake at 0.5 h,"[2]; iv, Lungs",0.2 %ID/g
same,tissue uptake at 1 h,"[2]; iv, Lungs",0.14 %ID/g
same,tissue uptake at 0.5 h,"[2]; iv, Muscle",0.14 %ID/g
same,tissue uptake at 1 h,"[2]; iv, Muscle",0.12 %ID/g
same,tissue uptake at 0.5 h,"[2]; iv, Plasma",0.29 %ID/g
same,tissue uptake at 1 h,"[2]; iv, Plasma",0.15 %ID/g
same,tissue uptake at 0.5 h,"[2]; iv, Small intestine",0.3 %ID/g
same,tissue uptake at 1 h,"[2]; iv, Small intestine",0.19 %ID/g
same,tissue uptake at 0.5 h,"[2]; iv, Spleen",0.14 %ID/g
same,tissue uptake at 1 h,"[2]; iv, Spleen",0.09 %ID/g
same,tissue uptake at 0.5 h,"[2]; iv, Stomach",0.1 %ID/g
same,tissue uptake at 1 h,"[2]; iv, Stomach",0.21 %ID/g
same,tissue uptake at 0.5 h,"[2]; iv, Whole blood",0.2 %ID/g
same,tissue uptake at 1 h,"[2]; iv, Whole blood",0.1 %ID/g
same,Accumulation,[2]; mouse,"No accumulation in tissues, only in urine"
same,Clearance,[2]; mouse,Rapid renal clearance
same,In vivo stability,"[2]; mouse, iv",poor in vivo stability
same,Stability,[3],Rapidly degraded in vitro and in vivo.
